Where a chain is given by its changes, count along the chain named.

The chains are these.
B1: 373_B04 (antibody, V domains shown)
VH: EVQLLESGGGLVQPGGSLRLSCAASGFTFSSYGMNWVRQAPGKGLEWVAGINYNSGYKGYADSVKGRFTISRDNSKNTLYLQMNSLRAEDTAVYYCARSANWHDTALDYWGQGTLVTVSS
VL: DIQMTQSPSSLSASVGDRVTITCRASQSILTYLNWYQQKPGKAPKLLIYAATSRASGVPSRFSGSGSGTDFTLTISSLQPEDFATYYCQQSYETPLTFGGGTKVEIK
B2: 373_H01 (antibody, V domains shown)
VH: B1 VH with S30D, G33S, G50N, S55G, K58T
VL: B1 VL with T31S, L47V, E93D, T94N
B3: 374_A07 (antibody, V domains shown)
VH: B1 VH with G33S, A49S
VL: B1 VL with T31S, L33V, A51V, E93D, T94L
B4: 373_D05 (antibody, V domains shown)
VH: B1 VH with G33S, A49S
VL: B1 VL with T31S, L47V, E93D, T94S
B5: 373_G12 (antibody, V domains shown)
VH: B1 VH with G33S, A49S, G50N, S55G, K58T, G59S
VL: B1 VL with T31S, A51T, R54L, E93N, T94S
B6: 374_D01 (antibody, V domains shown)
VH: B1 VH with S30D, G33S, A49S
VL: B1 VL with L30I, L33V, R54L, E93S, T94S
B7: 373_C06 (antibody, V domains shown)
VH: B1 VH with G33S, S55G, K58T
VL: B1 VL with L30V, T31S, L33V, L47V, E93D
B8: 373_D04 (antibody, V domains shown)
VH: B1 VH with S30D, G33S, A49S
VL: B1 VL with T31S, A55H, E93D, T94S
B9: 373_C08 (antibody, V domains shown)
VH: B1 VH with G33S, G50N, S55G, K58T, G59S
VL: B1 VL with L30I, T31S, T52S, R54L, A55Q, E93N, T94N
B10: 373_B12 (antibody, V domains shown)
VH: B1 VH with S30D, A49S, G50S, K58T, G59S
VL: B1 VL with L30V, T31S, L33V, E93D, T94S
B11: 373_D10 (antibody, V domains shown)
VH: B1 VH with S30D, G33S, A49S, G50N
VL: B1 VL with T31S, L33V, E93D, T94L
B12: 373_G10 (antibody, V domains shown)
VH: B1 VH with S31D, A49S, G50N, S55G, G59S
VL: B1 VL with L30V, T31S, L33V, E93D, T94L
B13: 374_C06 (antibody, V domains shown)
VH: B1 VH with S30D, S31D, G33S, A49S, G50S
VL: B1 VL with L33V, E93N, T94S
B14: 374_D08 (antibody, V domains shown)
VH: B1 VH with S30D, A49S, K58T, A106H
VL: B1 VL with A55H, T94S
B15: 374_B12 (antibody, V domains shown)
VH: B1 VH with S30D, G33S, S55G, K58T, A106H
VL: B1 VL with L30S, T31S, L47V, E93D, T94N
B16: 373_C04 (antibody, V domains shown)
VH: B1 VH with G33S, G50N, K58T
VL: B1 VL with L30I, T31S, L33V, L47V, A51V, E93N, T94S
B17: 374_C03 (antibody, V domains shown)
VH: B1 VH with S30D, G33S, A49S, K58T, G59S
VL: B1 VL with E93D, T94S
B18: 373_E01 (antibody, V domains shown)
VH: B1 VH with A49S, S55G
VL: B1 VL with L30V, T31S, L33V, A55H, E93N, T94N
B19: 373_E07 (antibody, V domains shown)
VH: B1 VH with G50N, S55G, K58T, G59S
VL: B1 VL with L33V, R54L
B20: 373_C11 (antibody, V domains shown)
VH: B1 VH with G33S, A49S, K58T
VL: B1 VL with L33V, L47V, A51V
B21: 373_E05 (antibody, V domains shown)
VH: B1 VH with S30D, A49S, G50N, S55G, K58T, G59S
VL: B1 VL with T31S, L33V, A51V, E93D, T94L
B22: 374_B04 (antibody, V domains shown)
VH: B1 VH with G33S, A49S, G50N, K58T
VL: B1 VL with L30V, T31S, A51V, T94S
B23: 373_B06 (antibody, V domains shown)
VH: B1 VH with S31D, G33S, S55G, K58T
VL: B1 VL with L33V, L47V, A55H, T94S
B24: 373_H05 (antibody, V domains shown)
VH: B1 VH with S31D, G33S, G50N, S55G
VL: B1 VL with L33V, L47V
B25: 374_E01 (antibody, V domains shown)
VH: B1 VH with S55G, K58T, G59S
VL: B1 VL with L30S, T31S, L33V, E93S
B26: 374_B06 (antibody, V domains shown)
VH: B1 VH with S30D, G33S, A106H
VL: B1 VL with L33V, E93D
B27: 373_E12 (antibody, V domains shown)
VH: B1 VH with G33S, G50N, S55G, K58T
VL: B1 VL with T31S, L33V, L47V, E93D
B28: 373_C02 (antibody, V domains shown)
VH: B1 VH with S30D, S31D, G33S, A49S
VL: B1 VL with T31S, L33V, E93N
B29: 373_B10 (antibody, V domains shown)
VH: B1 VH with S30D, A49S, G50N, S55G, K58T, G59S
VL: B1 VL with T31S, E93D, T94L
B30: 373_D01 (antibody, V domains shown)
VH: B1 VH with S30D, G33S, A49S, G59S, A106H
VL: B1 VL with T31S, L33V, L47V, E93D, T94S
Also: test concentration or dose not given here.

Sequence of Mouse ACVR2A (P27038 20-135 limits assumed): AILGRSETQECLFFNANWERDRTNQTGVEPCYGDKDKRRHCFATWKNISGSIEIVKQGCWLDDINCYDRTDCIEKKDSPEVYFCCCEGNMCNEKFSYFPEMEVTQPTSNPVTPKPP

In one assay the target is T1, Human ACVR2A (human, UniProt P27037 20-135, limits assumed).
T1 construct: also called activin receptor, type II A
T1 sequence (P27037 20-135 limits assumed): as the sequence (P27038 20-135 limits assumed) above, with R20K, I73V counted along it
The assay is described as follows: ELISA. Put shortly: (§1)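 ELISA measured binding of ACVR2A-specific monoclonal antibodies to human and mouse ACVR2A. Biotinylated goat anti-human kappa light chain served as positive control and human Fc as negative control.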
In turn, B1 gave an optical density of 3.6 OD.
The same measure, in the same setting: the result for B2 reads 3.1 OD; that for B3, 3.62 OD.
On the same count and under the same terms, the figure for B4 is 3.68 OD; for B5 it is 3.47 OD.
In the case of B6, the optical density stood at 3.24 OD.
On the same count and under the same terms, the result for B7 reads 3.54 OD; that for B8, 3.68 OD; that for B9, 3.05 OD.
Same read-out and setting: the result for B10 reads 3.12 OD; that for B11, 3.61 OD.
On the same count and under the same terms, the result for B12 reads 3.54 OD; that for B13, 3.71 OD; that for B14, 3.5 OD.
For the molecule B15, the optical density was determined as 3.49 OD.
Still for that read-out and setting: the result for B16 reads 3.36 OD; that for B17, 3.58 OD; that for B18, 2.35 OD.
Take B19: the optical density came out at 3.48 OD.
In turn, B20 registered an optical density of 3.49 OD.
Same read-out and setting: the result for B21 reads 3.54 OD.
Still for that read-out and setting: the result for B22 reads 3.67 OD; that for B23, 3.44 OD; that for B24, 3.29 OD.
Still for that read-out and setting: the result for B25 reads 3.24 OD; that for B26, 3.48 OD.
Molecule B27 came in with an optical density of 3.63 OD.
Still for that read-out and setting: the figure for B28 is 3.45 OD; for B29 it is 3.65 OD.
Still for that read-out and setting: the result for B30 reads 3.23 OD.

The target of another assay is Mouse ACVR2A (mouse, UniProt P27038 20-135, limits assumed). Description: ELISA. Put shortly:
as §1
Molecule B1 displayed an optical density of 3.62 OD.
The same measure, in the same setting: the figure for B2 is 3.28 OD.
The same measure, in the same setting: the result for B3 reads 3.71 OD; that for B4, 3.73 OD.
Still for that read-out and setting: the figure for B5 is 3.29 OD; for B6 it is 3.58 OD; for B7 it is 3.53 OD.
The molecule B8 yielded an optical density of 3.65 OD.
On the same count and under the same terms, the result for B9 reads 3.19 OD; that for B10, 3.08 OD.
Still for that read-out and setting: the result for B11 reads 3.61 OD; that for B12, 3.56 OD; that for B13, 3.71 OD.
Still for that read-out and setting: the figure for B14 is 3.59 OD; for B15 it is 3.33 OD; for B16 it is 3.5 OD.
Molecule B17 displayed an optical density of 3.61 OD.
On the same count and under the same terms, the result for B18 reads 2.56 OD; that for B19, 3.54 OD.
B20 registered an optical density of 3.47 OD.
On the same count and under the same terms, the result for B21 reads 3.59 OD; that for B22, 3.64 OD.
The same measure, in the same setting: the figure for B23 is 3.43 OD; for B24 it is 3.29 OD.
Still for that read-out and setting: the figure for B25 is 3.56 OD; for B26 it is 3.6 OD; for B27 it is 3.33 OD.
In turn, B28 came in with an optical density of 3.47 OD.
Still for that read-out and setting: the figure for B29 is 3.6 OD; for B30 it is 3.57 OD.

The next assay concerns the target T2, Goat anti-Human Kappa.
T2 construct: Positive control of the ELISA; also called biotinylated goat anti-human kappa light chain
The assay is described as follows: ELISA, positive control. A digest of the protocol: as §1
With B1, the optical density amounted to 3.25 OD.
Turning to B2, the optical density was 3.12 OD.
Consider B3, for which the optical density was found to be 3.07 OD.
For the molecule B4, the optical density stood at 3.25 OD.
On the same count and under the same terms, the result for B5 reads 3.26 OD.
B6 registered an optical density of 2.94 OD.
On the same count and under the same terms, the figure for B7 is 3.16 OD; for B8 it is 3.15 OD; for B9 it is 3.19 OD.
The same measure, in the same setting: the result for B10 reads 3.27 OD.
On the same count and under the same terms, the result for B11 reads 3.11 OD; that for B12, 3.26 OD; that for B13, 3.24 OD.
B14 registered an optical density of 3.02 OD.
The same measure, in the same setting: the result for B15 reads 3.05 OD.
Regarding B16, the optical density is 3.2 OD.
With B17, the optical density came to 3.06 OD.
The same measure, in the same setting: the figure for B18 is 2.99 OD; for B19 it is 3.23 OD.
B20 had an optical density of 3.17 OD.
Same read-out and setting: the figure for B21 is 3.24 OD; for B22 it is 3.3 OD; for B23 it is 3.24 OD.
On the same count and under the same terms, the figure for B24 is 3.22 OD; for B25 it is 3.04 OD; for B26 it is 3.08 OD.
On the same count and under the same terms, the figure for B27 is 3.12 OD; for B28 it is 3.15 OD.
In turn, B29 yielded an optical density of 3.15 OD.
Same read-out and setting: the figure for B30 is 3.04 OD.

For the origin of these results see patent US20210380703A1 (RIGEL PHARMACEUTICALS, published 2021).
